Two molecules from article PMC9280360 can be followed below.

Changes are numbered by the printed parent chain. Numbers in names are those of the source. Where “and” joins values, the source holds several entries; their conditions need not be identical. Identical values can stand only once.

The target of the assay is proprietary Ral effector protein (Ral-BP binding plate of the RalA G-LISA Activation Assay Kit). The assay can be described thus: ELISA; RalA G-LISA Activation Assay Kit; purified RalA incubated in the presence or absence of 15 uM GTP for 1.5 h at 25 C, then 50 ng of the RalA/GTP mixture applied to the Ral-BP binding plate (effector immobilised); n = 3. (In general: In an ELISA, binding on a coated surface is turned into a signal by an enzyme label.)

B1: Flag-tagged mutant RalA (RALA c.G482A, p.Arg161Gln) (natural protein)
chain: MAANKPKGQNSLALHKVIMVGSGGVGKSALTLQFMYDEFVEDYEPTKADSYRKKVVLDGEEVQIDILDTAGQEDYAAIRDNYFRSGEGFLCVFSITEMESFAATADFREQILRVKEDENVPFLLVGNKSDLEDKRQVSVEEAKNRAEQWNVNYVETSAKTQANVDKVFFDLMREIRARKMEDSKEKNGKKKRKSLAKRIRERCCIL
B1: the downstream effector binding (G-LISA signal) was 3.24 and 3.33.

B2: Flag-tagged wild-type RalA (RALA, NM_005402) (natural protein)
chain: B1 chain with Q161R
As for B2, the downstream effector binding (G-LISA signal) stood at 1.74.
